Paper PMC2859563

T1: SmcR (Vibrio vulnificus, UniProt Q9L8G8 1-205)
T1 sequence: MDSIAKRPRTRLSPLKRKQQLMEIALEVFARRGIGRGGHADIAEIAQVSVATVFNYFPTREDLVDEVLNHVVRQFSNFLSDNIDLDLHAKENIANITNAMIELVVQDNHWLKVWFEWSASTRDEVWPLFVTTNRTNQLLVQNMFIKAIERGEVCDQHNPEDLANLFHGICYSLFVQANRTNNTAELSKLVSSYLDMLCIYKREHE

B1: PvvpE (dsDNA)
DNA 1: ATCTTATTGATAAATCTGCGTAAAAAA
DNA 2: TTTTTTACGCAGATTTATCAATAAGAT
B2: PvvpE-mod (dsDNA)
DNA 1: TTCTTATTGATAAATTTGTGAATAAAA
DNA 2: TTTTATTCACAAATTTATCAATAAGAA

Biological target: T1, SmcR
Test: ITC

Binder	Kd [nM]
B1	2800
B2	76
